The record followed here is US20250049896A1 (Regeneron, published 2025).

The experiment addresses T1, Hmm-hTFRC (REGN2431), monomeric human transferrin receptor ectodomain with N-terminal hexahistidine-myc-myc … (human, UniProt P02786 89-760).
T1 construct: also called hmm.hTfR(C89-F763); His-myc-myc-hTFRC ecto
Briefly: blocking ELISA, supernatant; Hmm-hTFRC binding to immobilized human holo-Tf. As to the method: In the blocking assay, the anti-human Transferrin goat IgG polyclonal antibody (anti-hTf pAb) was passively absorbed at a concentration of 2 micrograms/mL in PBS on a 96-well microtiter plate overnight at 4° C. […] To the same plate, human holo-Tf was then added at a concentration of 1 micrograms/mL in PBS+0.5% BSA for 2 hours at room temperature. […] After a 1-hour incubation, the mixtures were transferred to the human holo-Tf microtiter plates. […] The plates were developed using TMB substrate solution according to the manufacturer's recommended procedure and absorbance at 450 nm was measured on a Victor™ Multilabel Plate Reader.
The ability of the anti-TfR antibody to block human TFRC binding to human holo-Tf was evaluated using an ELISA-based blocking assay.

T1 sequence (P02786 other isoform, or with tags, fused parts or gaps): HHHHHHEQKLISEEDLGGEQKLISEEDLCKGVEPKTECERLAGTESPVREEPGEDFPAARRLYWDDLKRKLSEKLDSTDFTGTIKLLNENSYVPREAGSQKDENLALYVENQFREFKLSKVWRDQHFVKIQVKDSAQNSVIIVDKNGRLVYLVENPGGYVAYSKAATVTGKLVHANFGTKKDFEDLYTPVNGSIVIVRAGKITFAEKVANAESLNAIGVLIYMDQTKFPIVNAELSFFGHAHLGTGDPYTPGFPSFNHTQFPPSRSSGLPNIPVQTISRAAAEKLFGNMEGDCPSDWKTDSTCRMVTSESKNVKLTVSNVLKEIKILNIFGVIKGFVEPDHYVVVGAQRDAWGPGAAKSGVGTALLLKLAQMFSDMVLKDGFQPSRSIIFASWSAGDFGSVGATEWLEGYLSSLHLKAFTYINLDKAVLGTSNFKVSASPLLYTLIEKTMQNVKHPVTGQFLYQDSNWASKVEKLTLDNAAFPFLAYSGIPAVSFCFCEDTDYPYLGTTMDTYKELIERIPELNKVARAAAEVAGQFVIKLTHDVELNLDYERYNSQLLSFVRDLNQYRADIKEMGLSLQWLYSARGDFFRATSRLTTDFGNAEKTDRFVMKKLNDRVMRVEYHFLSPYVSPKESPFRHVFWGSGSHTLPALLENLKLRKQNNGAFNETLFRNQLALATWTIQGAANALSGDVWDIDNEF

B1: 12801B scFv (VK-VH) (scFv)
scFv: DIQMTQSPSSLSASVGDRVTITCRASQGIRTDLGWYQQKPGKAPKRLIYAASSLQSGVPSRFSGSGSGTEFTLTISSLRPEDFATFYCLQYNSYPLTFGGGTKVEIKGGGGSGGGGSGGGGSEVQLLESGGALVQPGGSLRLSCAASGFTFTSYAMHWVRQAPGKGLEWVSSIRGSGGGTYSADSVKGRFTISRDNSRDTLYLQMNSVRAEDTAVYYCARSHDYGAFDFFDYWGQGTLVTVSS
notes: CHO supernatant; Vk-3xG4S-Vh
In the case of B1, the “% Blocking” value turned out to be 27%.

B2: 12812B scFv (VK-VH) (scFv)
scFv: DIQMTQSPPSVSASVGDRVTITCRASQGISSWLAWYQQKPGKAPKLLIYAASSLQSGVPSRFSGSGSGTDFTLTISSLQPEDFATYYCQQANSFPRTFGQGTKVEIKGGGGSGGGGSGGGGSQVQLVQSGAEVKKPGSSVRVSCKASRGTFSSYAISWVRQAPGQGLEWMGGIIPIFGTANYAQKFLARVTITADESTSTAYMELSSLRSEDTAVYYCAREKGWNYFDYWGQGTLVTVSS
notes: CHO supernatant; Vk-3xG4S-Vh
As to B2, the “% Blocking” value worked out at 12%.

B3: 12834B Fab (Fab, V domains shown)
VH: QVQLVQSGAEVKKPGASVKVSCKASGYTFTSYGISWVRQAPGQGLEWMGWISVYHGNTNYAQKFQGRVTMTTDTSTSTAYMELRSLRSDDTAVYYCAREGYYDFWSGYYPFDYWGQGTLVTVSS
VL: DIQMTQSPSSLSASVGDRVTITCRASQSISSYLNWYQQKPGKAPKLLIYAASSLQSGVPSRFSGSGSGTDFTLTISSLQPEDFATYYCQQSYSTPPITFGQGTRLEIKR
notes: CHO supernatant
Turning to B3, the “% Blocking” value was -2%.

B4: 12802B scFv (VK-VH) (scFv)
scFv: EIVMTQSPATLSVSPGERATLSCRASQSVSINLAWYQQKPGQAPRLLIFVASTRATGIPARFSGSGSGTEFTLTISSLQSEDFATYYCQQYDIWPYTFGQGTKLEIKGGGGSGGGGSGGGGSQVQLVESGGGLVKPGGSLRLSCAASGFTFSDYFMSWIRQAPGKGLEWVSYISSTGSTINYADSVKGRFTISRDNVKNSLYLQMTSLRVEDTAVYYCTRDNWNYEYWGQGTLVTVSS
notes: CHO supernatant; Vk-3xG4S-Vh
With B4, the “% Blocking” value is 17%.

B5: 12799B scFv (VK-VH) (scFv)
scFv: DIQMTQSPSSVSASVGDRVTITCRASQGIASWLAWYQQKPGKAPELLIYAASSLQGGVPSRFSGSGSGTDFTLTISSLQPEDFAIYYCQQANYFPWTFGQGTKVEIKGGGGSGGGGSGGGGSQITLKESGPTLVKPTQTLTLTCTFSGFSLSTSGVGVVWIRQPPGKALEWLALIYWNDHKRYSPSLGSRLTITKDTSKNQVVLTMTNMDPVDTATYYCAHYSGSYSYYYYGLDVWGQGTTVTVSS
notes: CHO supernatant; Vk-3xG4S-Vh
Take B5: the “% Blocking” value is 10%.

B6: 12845B Fab (Fab, V domains shown)
VH: EVQLVESGGGLVQPGGSLRLSCAASGFTVSNYEMNWVRQAPGKGLEWVSYISSSTSNIYYADSVKGRFTISRDNAENSLYLQMNSLRVEDTAVYYCVRDGIVVVPVGRGYYYYGLDVWGQGTTVTVSS
VL: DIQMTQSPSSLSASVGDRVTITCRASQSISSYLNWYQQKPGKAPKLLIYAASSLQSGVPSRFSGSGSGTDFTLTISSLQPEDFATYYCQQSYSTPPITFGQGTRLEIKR
notes: CHO supernatant
In the case of B6, the “% Blocking” value came to 11%.

B7: 12798B scFv (VK-VH) (scFv)
scFv: EIVMTQSPATLSVSPGERATLSCRASQTVSSNLAWYQQKPGQAPRLLIYGSSSRATGIPARFSGSGSGTEFTLTISSLQSEDFAVYYCQQYNNWPPYTFGQGTKLEIKGGGGSGGGGSGGGGSEVQLVESGGDLVQPGRSLRLSCAASGFTFDDYAMHWVRQAPGKGLEWVSGISWNSATRVYADSVKGRFTISRDNAKNFLYLQMNSLRSEDTALYHCAKDMDISLGYYGLDVWGQGTTVTVSS
notes: CHO supernatant; Vk-3xG4S-Vh
Turning to B7, the “% Blocking” value is 10%.

B8: 12799B Fab (Fab, V domains shown)
VH: QITLKESGPTLVKPTQTLTLTCTFSGFSLSTSGVGVVWIRQPPGKALEWLALIYWNDHKRYSPSLGSRLTITKDTSKNQVVLTMTNMDPVDTATYYCAHYSGSYSYYYYGLDVWGQGTTVTVSS
VL: DIQMTQSPSSVSASVGDRVTITCRASQGIASWLAWYQQKPGKAPELLIYAASSLQGGVPSRFSGSGSGTDFTLTISSLQPEDFAIYYCQQANYFPWTFGQGTKVEIKR
notes: CHO supernatant
For the molecule B8, the “% Blocking” value was determined as 5%.

B9: 12812B Fab (Fab, V domains shown)
VH: QVQLVQSGAEVKKPGSSVRVSCKASRGTFSSYAISWVRQAPGQGLEWMGGIIPIFGTANYAQKFLARVTITADESTSTAYMELSSLRSEDTAVYYCAREKGWNYFDYWGQGTLVTVSS
VL: DIQMTQSPPSVSASVGDRVTITCRASQGISSWLAWYQQKPGKAPKLLIYAASSLQSGVPSRFSGSGSGTDFTLTISSLQPEDFATYYCQQANSFPRTFGQGTKVEIKR
notes: CHO supernatant
As for B9, the “% Blocking” value amounted to 14%.

B10: 12816B Fab (Fab, V domains shown)
VH: QVQLVESGGGLVKPGGSLRLSCAASGFTFSDYYMNWIRQAPGKGLEWVSYISSSGTTIYYADSVKGRFTISRDNAKKSLYLEMNSLRAEDTAVYYCAREGYGNDYYYYGIDVWGQGTTVTVSS
VL: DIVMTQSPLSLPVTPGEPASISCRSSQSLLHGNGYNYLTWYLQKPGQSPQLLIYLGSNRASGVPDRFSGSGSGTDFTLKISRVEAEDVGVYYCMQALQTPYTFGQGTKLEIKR
notes: CHO supernatant
Turning to B10, the “% Blocking” value came to 14%.

B11: 12802B Fab (Fab, V domains shown)
VH: QVQLVESGGGLVKPGGSLRLSCAASGFTFSDYFMSWIRQAPGKGLEWVSYISSTGSTINYADSVKGRFTISRDNVKNSLYLQMTSLRVEDTAVYYCTRDNWNYEYWGQGTLVTVSS
VL: EIVMTQSPATLSVSPGERATLSCRASQSVSINLAWYQQKPGQAPRLLIFVASTRATGIPARFSGSGSGTEFTLTISSLQSEDFATYYCQQYDIWPYTFGQGTKLEIKR
notes: CHO supernatant
In the case of B11, the “% Blocking” value came out at 15%.

B12: 12798B scFv (VH-VK) (scFv)
scFv: EVQLVESGGDLVQPGRSLRLSCAASGFTFDDYAMHWVRQAPGKGLEWVSGISWNSATRVYADSVKGRFTISRDNAKNFLYLQMNSLRSEDTALYHCAKDMDISLGYYGLDVWGQGTTVTVSSGGGGSGGGGSGGGGSEIVMTQSPATLSVSPGERATLSCRASQTVSSNLAWYQQKPGQAPRLLIYGSSSRATGIPARFSGSGSGTEFTLTISSLQSEDFAVYYCQQYNNWPPYTFGQGTKLEIK
notes: CHO supernatant
For B12, the “% Blocking” value turned out to be 0%.

B13: 12808B scFv (VK-VH) (scFv)
scFv: DIQMTQSPSSLSASVGDRVTINCRASQGIRNDLGWYQQKPGKAPKRLIYAASSLQSGVPLRFSGSGSGTEFTLTINNLQPEDFATYYCLSHNSYPWTFGQGTKVEIKGGGGSGGGGSGGGGSQLQLQESGPGLVKPSETLSLTCTVSGESISSNTYYWGWIRQPPGKGLEWIGSIDYSGTTNYNPSLKSRVTISVDTSRNHFSLRLRSVTAADTAVYYCAREWGNYGYYYGMDVWGQGTTVTVSS
notes: CHO supernatant; Vk-3xG4S-Vh
With B13, the “% Blocking” value amounted to 18%.

B14: 12844B Fab (Fab, V domains shown)
VH: EVQLVESGGSVVRPGGSLRLSCEASGFTFDDYGMSWVRQDPGKGLEWVSGINWNGDRTNYADSVKGRFIISRDNAKNSVYLQMNSLRAEDSALYHCARDQGLGVAATLDYWGQGTLVTVSS
VL: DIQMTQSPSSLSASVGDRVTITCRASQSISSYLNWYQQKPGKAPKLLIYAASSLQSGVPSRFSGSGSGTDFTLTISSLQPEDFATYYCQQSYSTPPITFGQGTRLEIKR
notes: CHO supernatant
B14: the “% Blocking” value was determined as 20%.

B15: 12843B Fab (Fab, V domains shown)
VH: EVQLVESGGGLVQPGGSLRLSCAASGFTFNIFEMNWVRQAPGKGLEWISYISSRGTTTYYADSVRGRFTISRDNAKNSLYLQMNSLRAEDTAVYYCARDYEATIPFDFWGQGTLVTVSS
VL: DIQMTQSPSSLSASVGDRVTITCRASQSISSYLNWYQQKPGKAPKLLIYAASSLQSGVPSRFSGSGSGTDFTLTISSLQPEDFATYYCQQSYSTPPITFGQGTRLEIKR
notes: CHO supernatant
B15: the “% Blocking” value was found to be 10%.

B16: 12808B Fab (Fab, V domains shown)
VH: QLQLQESGPGLVKPSETLSLTCTVSGESISSNTYYWGWIRQPPGKGLEWIGSIDYSGTTNYNPSLKSRVTISVDTSRNHFSLRLRSVTAADTAVYYCAREWGNYGYYYGMDVWGQGTTVTVSS
VL: DIQMTQSPSSLSASVGDRVTINCRASQGIRNDLGWYQQKPGKAPKRLIYAASSLQSGVPLRFSGSGSGTEFTLTINNLQPEDFATYYCLSHNSYPWTFGQGTKVEIKR
notes: CHO supernatant
On to B16, for which the “% Blocking” value was 16%.

B17: 12801B scFv (VH-VK) (scFv)
chain: EVQLLESGGALVQPGGSLRLSCAASGFTFTSYAMHWVRQAPGKGLEWVSSIRGSGGGTYSADSVKGRFTISRDNSRDTLYLQMNSVRAEDTAVYYCARSHDYGAFDFFDYWGQGTLVTVSSDIQMTQSPSSLSASVGDRVTITCRASQGIRTDLGWYQQKPGKAPKRLIYAASSLQSGVPSRFSGSGSGTEFTLTISSLRPEDFATFYCLQYNSYPLTFGGGTKVEIK
For B17, the “% Blocking” value is 37%.

B18: 12801B Fab (Fab, V domains shown)
VH: EVQLLESGGALVQPGGSLRLSCAASGFTFTSYAMHWVRQAPGKGLEWVSSIRGSGGGTYSADSVKGRFTISRDNSRDTLYLQMNSVRAEDTAVYYCARSHDYGAFDFFDYWGQGTLVTVSS
VL: DIQMTQSPSSLSASVGDRVTITCRASQGIRTDLGWYQQKPGKAPKRLIYAASSLQSGVPSRFSGSGSGTEFTLTISSLRPEDFATFYCLQYNSYPLTFGGGTKVEIKR
notes: CHO supernatant
Regarding B18, the “% Blocking” value was 45%.

B19: 12839B Fab (Fab, V domains shown)
VH: QVQLVESGGGVVQPGRSLRLSCAASGFPFSNYVMYWVRQAPGKGLEWVALIFFDGKKNYHADSVKGRFTITRDNSKNMLYLQMNSLRPEDAAVYYCAKIHCPNGVCYKGYYGMDVWGQGTTVTVSS
VL: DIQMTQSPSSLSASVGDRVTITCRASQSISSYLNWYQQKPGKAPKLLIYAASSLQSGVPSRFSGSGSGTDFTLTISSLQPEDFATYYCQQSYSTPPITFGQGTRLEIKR
notes: CHO supernatant
Consider B19, for which the “% Blocking” value was determined as 13%.

B20: 12841B Fab (Fab, V domains shown)
VH: EVQLVESGGGLVQPGGSLRLSCAASGFTFSNYWMNWVRQAPGKGLEWVANIKEDGGKKLYVDSVKGRFTISRDNAKNSLFLQMNSLRAEDTAVYYCAREDTTLVVDYYYYGMDVWGQGTTVTVSS
VL: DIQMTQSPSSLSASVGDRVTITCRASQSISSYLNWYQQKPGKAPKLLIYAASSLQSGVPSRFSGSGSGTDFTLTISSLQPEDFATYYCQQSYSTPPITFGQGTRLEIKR
notes: CHO supernatant; also called H1H12841B
On to B20, for which the “% Blocking” value was 29%.

B21: 12835B Fab (Fab, V domains shown)
VH: EVQLVESGGGLIQPGGSLRLSCEASGFTFRNYEMNWVRQAPGKGLEWVSYISSSGNMKDYAESVKGRFTISRDNVKNSLQLQMNSLRVEDTAVYYCARDEFPYGMDVWGQGTTVTVSS
VL: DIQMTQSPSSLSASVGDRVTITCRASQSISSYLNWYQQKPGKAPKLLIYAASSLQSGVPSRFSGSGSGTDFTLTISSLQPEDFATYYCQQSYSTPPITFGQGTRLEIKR
notes: CHO supernatant
Turning to B21, the “% Blocking” value was found to be 78%.

B22: 12833B Fab (Fab, V domains shown)
VH: QVQLVESGGGVVQPGRSLRLSCAASGFTFSSFGMHWVRQAPGKGLEWVIFISYDGSDKYYADSVKGRFAISRDSSKNTLYLQMNSLRAEDTAVYYCAKENGILTDSYGMDVWGQGTTVTVSS
VL: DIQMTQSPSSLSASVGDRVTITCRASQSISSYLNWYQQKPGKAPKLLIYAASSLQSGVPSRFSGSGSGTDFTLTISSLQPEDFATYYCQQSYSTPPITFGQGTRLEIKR
notes: CHO supernatant
Regarding B22, the “% Blocking” value was found to be 64%.

B23: 12808B scFv (VH-VK) (scFv)
chain: QLQLQESGPGLVKPSETLSLTCTVSGESISSNTYYWGWIRQPPGKGLEWIGSIDYSGTTNYNPSLKSRVTISVDTSRNHFSLRLRSVTAADTAVYYCAREWGNYGYYYGMDVWGQGTTVTVSSDIQMTQSPSSLSASVGDRVTINCRASQGIRNDLGWYQQKPGKAPKRLIYAASSLQSGVPLRFSGSGSGTEFTLTINNLQPEDFATYYCLSHNSYPWTFGQGTKVEIK
On to B23, for which the “% Blocking” value was found to be 19%.
